How the values were obtained:
[1] = target: T1, rmCIRP (recombinant murine cold-inducible RNA-binding protein) (mouse, UniProt P60824 1-172); test: SPR; RNA immobilized on SA chip; SPR (BIAcore T200), 1X HBS-EP running buffer; rmCIRP 7.8-500 nM over RNA; pH and temperature not stated; conditions: single strand
T1 sequence: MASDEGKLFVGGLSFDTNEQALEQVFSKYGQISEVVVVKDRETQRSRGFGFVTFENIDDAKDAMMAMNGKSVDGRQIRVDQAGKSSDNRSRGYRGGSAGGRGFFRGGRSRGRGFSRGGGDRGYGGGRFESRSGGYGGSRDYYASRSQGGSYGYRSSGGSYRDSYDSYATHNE

human TLR4/MD2 complex [2] = target: T2, human TLR4/MD2 complex (human, UniProt O00206 24-631; Q9Y6Y9 19-160); test: SPR; BIAcore T200; human TLR4/MD2 complex immobilised on a CM5 chip; rmCIRP (31.25-500 nM) injected alone as analyte; running buffer 1X HBS-EP; 1:1 binding model; conditions: both partners purified
T2 construct: Toll-like receptor 4 (TLR4), human, recombinant, in the bought TLR4/MD2 complex; Myeloid differentiation factor 2 (MD2), human, recombinant, in the bought TLR4/MD2 complex; also called TLR4 and myeloid differentiation factor 2 (MD2) complex; source: bought: R&D Systems
T2 sequence (O00206 24-631, chain 1 of 2): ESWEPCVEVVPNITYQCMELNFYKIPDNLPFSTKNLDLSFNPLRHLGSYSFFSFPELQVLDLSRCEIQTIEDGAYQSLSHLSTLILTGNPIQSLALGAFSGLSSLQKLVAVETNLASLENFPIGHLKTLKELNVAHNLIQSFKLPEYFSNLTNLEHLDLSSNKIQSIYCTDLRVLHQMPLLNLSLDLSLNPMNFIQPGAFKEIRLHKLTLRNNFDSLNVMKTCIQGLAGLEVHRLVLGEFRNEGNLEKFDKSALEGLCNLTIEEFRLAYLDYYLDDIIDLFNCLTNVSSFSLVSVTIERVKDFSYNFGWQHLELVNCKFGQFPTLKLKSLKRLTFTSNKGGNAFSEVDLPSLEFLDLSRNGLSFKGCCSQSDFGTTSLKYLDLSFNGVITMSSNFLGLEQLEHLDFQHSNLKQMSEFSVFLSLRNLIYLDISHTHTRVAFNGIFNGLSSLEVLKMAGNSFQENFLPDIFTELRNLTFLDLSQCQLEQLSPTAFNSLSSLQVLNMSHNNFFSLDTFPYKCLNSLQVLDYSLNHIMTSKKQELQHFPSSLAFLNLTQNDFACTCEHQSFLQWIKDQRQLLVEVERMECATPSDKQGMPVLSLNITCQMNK
T2 sequence (Q9Y6Y9 19-160, chain 2 of 2): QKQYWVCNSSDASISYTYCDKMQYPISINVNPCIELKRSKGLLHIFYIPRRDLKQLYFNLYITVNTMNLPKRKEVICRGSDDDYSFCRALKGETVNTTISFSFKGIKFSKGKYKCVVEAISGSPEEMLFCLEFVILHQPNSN

human TLR4/MD2 complex [3] = target: T2, human TLR4/MD2 complex; test: SPR; BIAcore T200; human TLR4/MD2 complex immobilised on a CM5 chip; rmCIRP (31.25-1,000 nM) incubated with a constant 50 nM miRNA 130b-3p mimic and injected as analyte; 1X HBS-EP; 1:1 binding model; conditions: both partners purified
human TLR4/MD2 complex [4] = target: T2, human TLR4/MD2 complex; test: SPR; BIAcore T200; human TLR4/MD2 complex immobilised on a CM5 chip; rmCIRP (31.25-1,000 nM) incubated with a constant 100 nM miRNA 130b-3p mimic and injected as analyte; 1X HBS-EP; 1:1 binding model; conditions: both partners purified
TLR4/MD2 complex = TLR4/MD2 complex (human, UniProt O00206;Q9Y6Y9 24-631;19-160); test: SPR; RNA analyte 31.25-1000 nM, no rmCIRP; SPR (BIAcore T200), 1X HBS-EP running buffer; rmCIRP 7.8-500 nM over RNA; pH and temperature not stated; conditions: protein: commercial
Chain of TLR4/MD2 complex (O00206 24-631, chain 1 of 2): as the sequence (O00206 24-631, chain 1 of 2) above
Chain of TLR4/MD2 complex (Q9Y6Y9 19-160, chain 2 of 2): as the sequence (Q9Y6Y9 19-160, chain 2 of 2) above

[5] = target: T1, rmCIRP (recombinant murine …); test: SPR; RNA immobilized on SA chip; text misprints 8.4 x 10^8 M; SPR (BIAcore T200), 1X HBS-EP running buffer; rmCIRP 7.8-500 nM over RNA; pH and temperature not stated; conditions: single strand

B1: miRNA 130b-3p mimic, biotinylated (ssRNA)
RNA: CAGUGCAAUGAUGAAAGGGCAU
Kd [1]: 50.1 ± 3 nM

B2: recombinant murine cold-inducible RNA-binding protein (natural protein, mouse, UniProt P60824 1-172, looked up)
chain: T1 sequence
notes: also called rmCIRP; recombinant mouse (rm) CIRP
Kd (human TLR4/MD2 complex [2]): 116.5 ± 0.8 nM | KD with 50 nM miRNA 130b-3p mimic (human TLR4/MD2 complex [3]): 420 nM | KD with 100 nM miRNA 130b-3p mimic (human TLR4/MD2 complex [4]): 40000 nM

B3: miRNA 130b-3p mimic (analyte) (ssRNA)
RNA: CAGUGCAAUGAUGAAAGGGCAU
binding result (TLR4/MD2 complex): no binding

B4: miRNA 140 mimic (140-5p), biotinylated (ssRNA)
RNA: CAGUGGUUUUACCCUAUGGUAG
Kd [1]: 160 ± 1.9 nM

B5: miRNA 27b mimic (27b-3p), biotinylated (ssRNA)
RNA: UUCACAGUGGCUAAGUUCUGC
Kd [5]: 83.5 ± 3.1 nM
